Km and kcat data for two proteins are collected here from PMC8153946, “Substrate Selectivity of Coumarin Derivatives by Human CYP1 Enzymes: In Vitro Enzyme Kinetics and In Silico Modeling” (ACS Omega, 2021).

Marks after values point to notes of the source that are not given here.

Format in all cases: biochemical, human
Substrate in data set [1]: CCOc1ccc2nc3ccc(=O)cc-3oc2c1
The data set can be described thus: Michaelis–Menten kinetics of oxidation to fluorescent 7-hydroxy metabolite by recombinant CYP1A2. Conditions: other: recombinant CYP1A2, 100 mM Tris-HCl pH 7.4, 37 °C, 95% confidence interval in brackets. How it is done: (§1) Baculovirus-insect cell-expressed human CYP1A1, CYP1A2, CYP1B1, CYP2A6, CYP2B6, CYP2C8, CYP2C9, CYP2C19, CYP2D6, CYP2E1, CYP3A4, CYP3A5, and CYP3A7 were purchased from BD Biosciences Discovery Labware (Woburn, MA, USA) and used according to the manufacturer’s instructions.
(§2) The kinetic assays were carried out in 100 μL volume containing 100 mM Tris-HCl buffer pH 7.4, 0–40 μM coumarin derivative or 0–10 μM 7-ethoxyresorufin, 1–25 nM recombinant CYP or 0–0.1 g/L microsomal protein, and 20% NADPH regenerating system. Incubations took place at 37 °C in 96-multiwell plates; the fluorescence was measured with a Victor[2] plate reader (PerkinElmer Life Sciences, Turku, Finland). The detailed conditions are described in the figures and tables. The reaction was started by adding NADPH, and fluorescence was measured at 2 min intervals for 40 min using excitation at 405 nm and emission at 460 nm for oxidation of coumarin derivatives[18] and excitation at 570 nm and emission at 615 nm for ethoxyresorufin or pentoxyresorufin 7-O-dealkylations. Incubations without the substrate, enzyme, or NADPH were used as blank reactions. Resorufin was used as a standard, and 3-(4-fluorophenyl)-7-hydroxycoumarin was used as the surrogate standards to calculate the amount of product formed. The linear phase of the reactions was used for calculations.
(§3) Enzyme kinetic parameters were analyzed using the nonlinear Michaelis–Menten equation v = Vmax × S/(Km + S), in which v is the rate for 7-hydroxylation of a coumarin derivative, S is its concentration, and Vmax value is the limiting rate of the reaction of 7-hydroxylation, which reached a half-maximal rate at a concentration of Km for the substrate.

Substrate in data set [2]: COc1ccc2oc(=O)c(-c3ccc(OC(F)(F)F)cc3)cc2c1
The description is as above. Conditions: other: recombinant CYP1A2, 100 mM Tris-HCl pH 7.4, 37 °C, 95% confidence interval in brackets. How it is done: as §1, §2, §3

Substrate in data set [3]: CC(=O)Oc1ccc(-c2cc3cc(Cl)ccc3oc2=O)cc1
The description is as above. Conditions: other: recombinant CYP1A2, 100 mM Tris-HCl pH 7.4, 37 °C, 95% confidence interval in brackets. How it is done:
as §1, §2, §3

Substrate in data set [4]: O=c1oc2ccc(O)cc2cc1-c1cccc(O)c1
Described as above. Conditions: other: recombinant CYP1A2, 100 mM Tris-HCl pH 7.4, 37 °C, 95% confidence interval in brackets. How it is done: as §1, §2, §3

Substrate in data set [5]: COc1ccc2oc(=O)c(-c3ccc(O)c(F)c3)cc2c1
Described as above. The note with it: other: recombinant CYP1A2, 100 mM Tris-HCl pH 7.4, 37 °C, 95% confidence interval in brackets. How it is done: as §1, §2, §3

Substrate in data set [6]: COc1ccc(-c2cc3cc(OC(C)=O)ccc3oc2=O)cc1
The description is as above. The note with it: other: recombinant CYP1A2, 100 mM Tris-HCl pH 7.4, 37 °C, 95% confidence interval in brackets. How it is done: as §1, §2, §3

Substrate in data set [7]: COc1cccc(-c2cc3cc(OC)ccc3oc2=O)c1
The data set is described as above. Conditions: other: recombinant CYP1A2, 100 mM Tris-HCl pH 7.4, 37 °C, 95% confidence interval in brackets. How it is done: as §1, §2, §3

Substrate in data set [8]: O=c1oc2ccccc2cc1-c1cccc(O)c1
The data set is described as above. The note with it: other: recombinant CYP1A2, 100 mM Tris-HCl pH 7.4, 37 °C, 95% confidence interval in brackets. How it is done:
as §1, §2, §3

Substrate in data set [9]: COc1ccc2cc(-c3ccc(OC(F)(F)F)cc3)c(=O)oc2c1
The description is as above. The note with it: other: recombinant CYP1A2, 100 mM Tris-HCl pH 7.4, 37 °C, 95% confidence interval in brackets. How it is done: as §1, §2, §3

Substrate in data set [10]: Cc1ccc2oc(=O)c(-c3ccc(F)cc3)cc2c1
The data set is described as above. Conditions: other: recombinant CYP1A2, 100 mM Tris-HCl pH 7.4, 37 °C, 95% confidence interval in brackets. How it is done:
as §1, §2, §3

Substrate in data set [11]: CCOc1ccc2ccc(=O)oc2c1
The data set is described as follows: Michaelis–Menten kinetics of oxidation to fluorescent 7-hydroxy metabolite by recombinant CYP1A1. The note with it: other: recombinant CYP1A1, 100 mM Tris-HCl pH 7.4, 37 °C, 95% confidence interval in brackets. How it is done: as §1, §2, §3

Substrate in data set [12]: CCOc1ccc2nc3ccc(=O)cc-3oc2c1
The description is as above. The note with it: other: recombinant CYP1A1, 100 mM Tris-HCl pH 7.4, 37 °C, 95% confidence interval in brackets. How it is done: as §1, §2, §3

Substrate in data set [13]: COc1ccc2oc(=O)c(-c3ccc(OC(F)(F)F)cc3)cc2c1
The description is as above. Conditions: other: recombinant CYP1A1, 100 mM Tris-HCl pH 7.4, 37 °C, 95% confidence interval in brackets. How it is done:
as §1, §2, §3

Substrate in data set [14]: CC(=O)Oc1ccc(-c2cc3cc(Cl)ccc3oc2=O)cc1
The data set is described as above. The note with it: other: recombinant CYP1A1, 100 mM Tris-HCl pH 7.4, 37 °C, 95% confidence interval in brackets. How it is done: as §1, §2, §3

Substrate in data set [15]: O=c1oc2ccc(O)cc2cc1-c1cccc(O)c1
The description is as above. Conditions: other: recombinant CYP1A1, 100 mM Tris-HCl pH 7.4, 37 °C, 95% confidence interval in brackets. How it is done: as §1, §2, §3

Substrate in data set [16]: COc1ccc2oc(=O)c(-c3ccc(O)c(F)c3)cc2c1
Described as above. Conditions: other: recombinant CYP1A1, 100 mM Tris-HCl pH 7.4, 37 °C, 95% confidence interval in brackets. How it is done:
as §1, §2, §3

Substrate in data set [17]: COc1ccc(-c2cc3cc(OC(C)=O)ccc3oc2=O)cc1
The data set is described as above. Conditions: other: recombinant CYP1A1, 100 mM Tris-HCl pH 7.4, 37 °C, 95% confidence interval in brackets. How it is done: as §1, §2, §3

Substrate in data set [18]: COc1cccc(-c2cc3cc(OC)ccc3oc2=O)c1
The description is as above. Conditions: other: recombinant CYP1A1, 100 mM Tris-HCl pH 7.4, 37 °C, 95% confidence interval in brackets. How it is done:
as §1, §2, §3

Substrate in data set [19]: CCCCCOc1ccc2nc3ccc(=O)cc-3oc2c1
The description is as above. The note with it: other: recombinant CYP1A1, 100 mM Tris-HCl pH 7.4, 37 °C, 95% confidence interval in brackets. How it is done: as §1, §2, §3

Substrate in data set [20]: COc1ccc2cc(-c3ccc(OC(F)(F)F)cc3)c(=O)oc2c1
The data set is described as above. Conditions: other: recombinant CYP1A1, 100 mM Tris-HCl pH 7.4, 37 °C, 95% confidence interval in brackets. How it is done:
as §1, §2, §3

B1: human CYP1A2 (Homo sapiens) (protein)
chain: MALSQSVPFSATELLLASAIFCLVFWVLKGLRPRVPKGLKSPPEPWGWPLLGHVLTLGKNPHLALSRMSQRYGDVLQIRIGSTPVLVLSRLDTIRQALVRQGDDFKGRPDLYTSTLITDGQSLTFSTDSGPVWAARRRLAQNALNTFSIASDPASSSSCYLEEHVSKEAKALISRLQELMAGPGHFDPYNQVVVSVANVIGAMCFGQHFPESSDEMLSLVKNTHEFVETASSGNPLDFFPILRYLPNPALQRFKAFNQRFLWFLQKTVQEHYQDFDKNSVRDITGALFKHSKKGPRASGNLIPQEKIVNLVNDIFGAGFDTVTTAISWSLMYLVTKPEIQRKIQKELDTVIGRERRPRLSDRPQLPYLEAFILETFRHSSFLPFTIPHSTTRDTTLNGFYIPKKCCVFVNQWQVNHDPELWEDPSEFRPERFLTADGTAINKPLSEKMMLFGMGKRRCIGEVLAKWEIFLFLAILLQQLEFSVPPGVKVDLTPIYGLTMKHARCEHVQARLRFSIN
notes: purchased BD Biosciences Discovery Labware (Woburn, MA, USA); host or cells: baculovirus-insect cells
Take B1: the Km in [1] is given as 0.56 (0.44–0.68) μM; in data set [2] it was 0.96 (0.61–1.32) μM; in data set [3], 2 (1.2–2.7) μM; in data set [4], 2.4 (1.8–3.1) μM; in data set [5] it was 20.3 (0–53) μM; in data set [6], 2.2 (1.6–2.8) μM. In addition, the Km in data set [7] is on record as 0.27 (0.19–0.36) μM; in data set [8], 47 (8–86) μM; in data set [9] it was 7.9 (5.1–10.6) μM; in data set [10] it was 7.6 (0.59–14.6) μM. The kcat was 3.2 (2.9–3.6) mol/(min·mol CYP) in data set [1]; 4.4 (4.1–4.8) mol/(min·mol CYP) in data set [2]; 1.2 (1.1–1.4) mol/(min·mol CYP) in data set [3]; 29.8 (27.5–32.2) mol/(min·mol CYP) in data set [4]; 6.0 (0–12.8) mol/(min·mol CYP) in data set [5]; 8.7 (8–9.4) mol/(min·mol CYP) in data set [6]. Besides, the kcat in data set [7] is 8.2 (7.6–8.9) mol/(min·mol CYP); in data set [8], 0.4 (0.19–0.6) mol/(min·mol CYP); in data set [9] it was 9.1 (7.8–10.5) mol/(min·mol CYP); in [10], 1 (0.63–1.38) mol/(min·mol CYP).

B2: human CYP1A1 (Homo sapiens) (protein)
chain: MLFPISMSATEFLLASVIFCLVFWVIRASRPQVPKGLKNPPGPWGWPLIGHMLTLGKNPHLALSRMSQQYGDVLQIRIGSTPVVVLSGLDTIRQALVRQGDDFKGRPDLYTFTLISNGQSMSFSPDSGPVWAARRRLAQNGLKSFSIASDPASSTSCYLEEHVSKEAEVLISTLQELMAGPGHFNPYRYVVVSVTNVICAICFGRRYDHNHQELLSLVNLNNNFGEVVGSGNPADFIPILRYLPNPSLNAFKDLNEKFYSFMQKMVKEHYKTFEKGHIRDITDSLIEHCQEKQLDENANVQLSDEKIINIVLDLFGAGFDTVTTAISWSLMYLVMNPRVQRKIQEELDTVIGRSRRPRLSDRSHLPYMEAFILETFRHSSFVPFTIPHSTTRDTSLKGFYIPKGRCVFVNQWQINHDQKLWVNPSEFLPERFLTPDGAIDKVLSEKVIIFGMGKRKCIGETIARWEVFLFLAILLQRVEFSVPLGVKVDMTPIYGLTMKHACCEHFQMQLRS
notes: as for B1
Turning to B2, the Km is given as 11.9 (0–25.1) μM in data set [11]; 0.054 (0.035–0.075) μM in data set [12]; 4.8 (2.6–6.9) μM in data set [13]; 0.41 (0.26–0.55) μM in [14]; 2.11 (0.17–4.1) μM in [15]; 10.7 (2.6–18.7) ^b μM in [16]. In addition, the Km in data set [17] was 1.04 (0.65–1.42) μM; in data set [18], 0.96 (0.4–1.52) μM; in [19], 0.74 (0.54–0.94) μM; in data set [20], 9.7 (4.8–14.6) μM. For the same protein, the kcat in [11] is 26.2 (14.5–38) mol/(min·mol CYP); in [12], 10.3 (9.3–11.4) mol/(min·mol CYP); in data set [13], 12.6 (10.6–14.6) mol/(min·mol CYP); in data set [14], 6.5 (5.9–7.1) mol/(min·mol CYP); in data set [15] it was 4.0 (3.0–5.0) mol/(min·mol CYP); in data set [16] it was 32 (18–46) mol/(min·mol CYP). Moreover, the kcat in [17] is 7.5 (7–8.1) mol/(min·mol CYP); in data set [18] it was 24.2 (19.4–29) mol/(min·mol CYP); in [19], 1.35 (1.19–1.50) mol/(min·mol CYP); in [20], 4.2 (3.3–5.1) mol/(min·mol CYP).
